Test results taken from the supplement of paper PMC5998384.

Assays:
HeLa Kyoto [1] = assay: solubility in G1/S (NP-40 vs SDS abundance) (log2 ratio); higher = more soluble; details: cell cycle stage: G1/S
HeLa Kyoto [2] = assay: melting temperature (median over replicates), in situ; higher = more thermally stable
HeLa Kyoto [3] = assay: thermal stability score vs G1/S (z-score of summed log2 fold changes over temperatures); higher = more thermally stable than in G1/S
HeLa Kyoto [4] = assay: solubility change mitosis vs G1/S (difference of NP-40 vs SDS log2 ratios) (log2 ratio difference); higher = more soluble in mitosis
[5] = cell cycle stage: early G1 (4.5 h after nocodazole release)
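For melting temperature (median over replicates), in situ in this document: HeLa Kyoto cells synchronized by double thymidine or nocodazole block, proteins quantified by TMT10plex mass spectrometry, three independent biological replicates.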
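For solubility change mitosis vs G1/S (difference of NP-40 vs SDS log2 ratios) in this document: synchronized HeLa Kyoto cells (double thymidine block for G1/S, nocodazole release for mitosis), protein amounts in NP-40 versus SDS lysates quantified by mass spectrometry, three biological replicates.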
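For solubility in G1/S (NP-40 vs SDS abundance) in this document: HeLa Kyoto cells arrested at G1/S by double thymidine block, proteins quantified by TMT10plex mass spectrometry in mild NP-40 versus SDS extracts, three biological replicates.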
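For thermal stability score vs G1/S (z-score of summed log2 fold changes over temperatures) in this document: synchronized HeLa Kyoto cells, proteins quantified by TMT10plex mass spectrometry, three biological replicates, mitosis taken 0.5 h after nocodazole release, G1/S directly after double thymidine block.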

With “MTHEEHHAAKTLGIGKAIAVLTSGGDAQGMNAAVRAVVRVGIFTGARVFFVHEGYQGLVDGGDHIKEATWESVSMMLQLGGTVIGSARCKDFREREGRLRAAYNLVKRGITNLCVIGGDGSLTGADTFRSEWSDLLSDLQKAGKITDEEATKSSYLNIVGLVGSIDNDFCGTDMTIGTDSALHRIMEIVDAITTTAQSHQRTFVLEVMGRHCGYLALVTSLSCGADWVFIPECPPDDDWEEHLCRRLSETRTRGSRLNIIIVAEGAIDKNGKPITSEDIKNLVVKRLGYDTRVTVLGHVQRGGTPSAFDRILGSRMGVEAVMALLEGTPDTPACVVSLSGNQAVRLPLMECVQVTKDVTKAMDEKKFDEALKLRGRSFMNNWEVYKLLAHVRPPVSKSGSHTVAVMNVGAPAAGMNAAVRSTVRIGLIQGNRVLVVHDGFEGLAKGQIEEAGWSYVGGWTGQGGSKLGTKRTLPKKSFEQISANITKFNIQGLVIIGGFEAYTGGLELMEGRKQFDELCIPFVVIPATVSNNVPGSDFSVGADTALNTICTTCDRIKQSAAGTKRRVFIIETMGGYCGYLATMAGLAAGADAAYIFEEPFTIRDLQANVEHLVQKMKTTVKRGLVLRNEKCNENYTTDFIFNLYSEEGKGIFDSRKNVLGHMQQGGSPTPFDRNFATKMGAKAMNWMSGKIKESYRNGRIFANTPDSGCVLGMRKRALVFQPVAELKDQTDFEHRIPKEQWWLKLRPILKILAKYEIDLDTSDHAHLEHITRKRSGEAAV [PFKM]” the “solubility in G1/S (log2)” value (HeLa Kyoto [1]) was 0.0079, the melting temperature (HeLa Kyoto [2]; cell cycle stage: G1/S) was 59.6 °C and the melting temperature (HeLa Kyoto [2]; cell cycle stage: mitosis) was 59.7 °C. The thermal stability score (HeLa Kyoto [3]; [5]) was -1.59, the thermal stability score (HeLa Kyoto [3]; cell cycle stage: mitosis) was -1.13 and the “solubility change mitosis (log2)” value (HeLa Kyoto [4]) was -0.181.
In the case of “MTIHQFLLLFLFWVCLPHFCSPEIMFRRTPVPQQRILSSRVPRSDGKILHRQKRGWMWNQFFLLEEYTGSDYQYVGKLHSDQDKGDGSLKYILSGDGAGTLFIIDEKTGDIHATRRIDREEKAFYTLRAQAINRRTLRPVEPESEFVIKIHDINDNEPTFPEEIYTASVPEMSVVGTSVVQVTATDADDPSYGNSARVIYSILQGQPYFSVEPETGIIRTALPNMNRENREQYQVVIQAKDMGGQMGGLSGTTTVNITLTDVNDNPPRFPQNTIHLRVLESSPVGTAIGSVKATDADTGKNAEVEYRIIDGDGTDMFDIVTEKDTQEGIITVKKPLDYESRRLYTLKVEAENTHVDPRFYYLGPFKDTTIVKISIEDVDEPPVFSRSSYLFEVHEDIEVGTIIGTVMARDPDSISSPIRFSLDRHTDLDRIFNIHSGNGSLYTSKPLDRELSQWHNLTVIAAEINNPKETTRVAVFVRILDVNDNAPQFAVFYDTFVCENARPGQLIQTISAVDKDDPLGGQKFFFSLAAVNPNFTVQDNEDNTARILTRKNGFNRHEISTYLLPVVISDNDYPIQSSTGTLTIRVCACDSQGNMQSCSAEALLLPAGLSTGALIAILLCIIILLVIVVLFAALKRQRKKEPLILSKEDIRDNIVSYNDEGGGEEDTQAFDIGTLRNPAAIEEKKLRRDIIPETLFIPRRTPTAPDNTDVRDFINERLKEHDLDPTAPPYDSLATYAYEGNDSIAESLSSLESGTTEGDQNYDYLREWGPRFNKLAEMYGGGESDKDS [CDH10]”, the “solubility in G1/S (log2)” value (HeLa Kyoto [1]) was 0.0681, the melting temperature (HeLa Kyoto [2]; cell cycle stage: G1/S) was 55.5 °C and the melting temperature (HeLa Kyoto [2]; cell cycle stage: mitosis) was 52.5 °C. The thermal stability score (HeLa Kyoto [3]; [5]) was -0.401, the thermal stability score (HeLa Kyoto [3]; cell cycle stage: mitosis) was -1.3 and the “solubility change mitosis (log2)” value (HeLa Kyoto [4]) was -0.163.
With “MTILTYPFKNLPTASKWALRFSIRPLSCSSQLRAAPAVQTKTKKTLAKPNIRNVVVVDGVRTPFLLSGTSYKDLMPHDLARAALTGLLHRTSVPKEVVDYIIFGTVIQEVKTSNVAREAALGAGFSDKTPAHTVTMACISANQAMTTGVGLIASGQCDVIVAGGVELMSDVPIRHSRKMRKLMLDLNKAKSMGQRLSLISKFRFNFLAPELPAVSEFSTSETMGHSADRLAAAFAVSRLEQDEYALRSHSLAKKAQDEGLLSDVVPFKVPGKDTVTKDNGIRPSSLEQMAKLKPAFIKPYGTVTAANSSFLTDGASAMLIMAEEKALAMGYKPKAYLRDFMYVSQDPKDQLLLGPTYATPKVLEKAGLTMNDIDAFEFHEAFSGQILANFKAMDSDWFAENYMGRKTKVGLPPLEKFNNWGGSLSLGHPFGATGCRLVMAAANRLRKEGGQYGLVAACAAGGQGHAMIVEAYPK [HADHB]” the “solubility in G1/S (log2)” value (HeLa Kyoto [1]) was 0.274, the melting temperature (HeLa Kyoto [2]; cell cycle stage: G1/S) was 50.7 °C and the melting temperature (HeLa Kyoto [2]; cell cycle stage: mitosis) was 50.7 °C. For the same sequence, the thermal stability score (HeLa Kyoto [3]; [5]) was -0.727, the thermal stability score (HeLa Kyoto [3]; cell cycle stage: mitosis) was -0.0884 and the “solubility change mitosis (log2)” value (HeLa Kyoto [4]) was -0.0395.
With “MTKAGSKGGNLRDKLDGNELDLSLSDLNEVPVKELAALPKATILDLSCNKLTTLPSDFCGLTHLVKLDLSKNKLQQLPADFGRLVNLQHLDLLNNKLVTLPVSFAQLKNLKWLDLKDNPLDPVLAKVAGDCLDEKQCKQCANKVLQHMKAVQADQERERQRRLEVEREAEKKREAKQRAKEAQERELRKREKAEEKERRRKEYDALKAAKREQEKKPKKEANQAPKSKSGSRPRKPPPRKHTRSWAVLKLLLLLLLFGVAGGLVACRVTELQQQPLCTSVNTIYDNAVQGLRRHEILQWVLQTDSQQ [LRRC59]” the “solubility in G1/S (log2)” value (HeLa Kyoto [1]) was 0.751, the melting temperature (HeLa Kyoto [2]; cell cycle stage: G1/S) was 56.7 °C and the melting temperature (HeLa Kyoto [2]; cell cycle stage: mitosis) was 54 °C. For the same sequence, the thermal stability score (HeLa Kyoto [3]; [5]) was 2.96, the thermal stability score (HeLa Kyoto [3]; cell cycle stage: mitosis) was -1.3 and the “solubility change mitosis (log2)” value (HeLa Kyoto [4]) was 0.236.
In the case of “MTKFGFLRLSYEKQDTLLKLLILSMAAVLSFSTRLFAVLRFESVIHEFDPYFNYRTTRFLAEEGFYKFHNWFDDRAWYPLGRIIGGTIYPGLMITSAAIYHVLHFFHITIDIRNVCVFLAPLFSSFTTIVTYHLTKELKDAGAGLLAAAMIAVVPGYISRSVAGSYDNEGIAIFCMLLTYYMWIKAVKTGSICWAAKCALAYFYMVSSWGGYVFLINLIPLHVLVLMLTGRFSHRIYVAYCTVYCLGTILSMQISFVGFQPVLSSEHMAAFGVFGLCQIHAFVDYLRSKLNPQQFEVLFRSVISLVGFVLLTVGALLMLTGKISPWTGRFYSLLDPSYAKNNIPIIASVSEHQPTTWSSYYFDLQLLVFMFPVGLYYCFSNLSDARIFIIMYGVTSMYFSAVMVRLMLVLAPVMCILSGIGVSQVLSTYMKNLDISRPDKKSKKQQDSTYPIKNEVASGMILVMAFFLITYTFHSTWVTSEAYSSPSIVLSARGGDGSRIIFDDFREAYYWLRHNTPEDAKVMSWWDYGYQITAMANRTILVDNNTWNNTHISRVGQAMASTEEKAYEIMRELDVSYVLVIFGGLTGYSSDDINKFLWMVRIGGSTDTGKHIKENDYYTPTGEFRVDREGSPVLLNCLMYKMCYYRFGQVYTEAKRPPGFDRVRNAEIGNKDFELDVLEEAYTTEHWLVRIYKVKDLDNRGLSRT [STT3A]”, the “solubility in G1/S (log2)” value (HeLa Kyoto [1]) was -0.102, the melting temperature (HeLa Kyoto [2]; cell cycle stage: G1/S) was 53.7 °C and the melting temperature (HeLa Kyoto [2]; cell cycle stage: mitosis) was 54 °C. For the same sequence, the thermal stability score (HeLa Kyoto [3]; [5]) was 1.3, the thermal stability score (HeLa Kyoto [3]; cell cycle stage: mitosis) was 3.3 and the “solubility change mitosis (log2)” value (HeLa Kyoto [4]) was -0.105.
With “MTLESIMACCLSEEAKEARRINDEIERQLRRDKRDARRELKLLLLGTGESGKSTFIKQMRIIHGSGYSDEDKRGFTKLVYQNIFTAMQAMIRAMDTLKIPYKYEHNKAHAQLVREVDVEKVSAFENPYVDAIKSLWNDPGIQECYDRRREYQLSDSTKYYLNDLDRVADPAYLPTQQDVLRVRVPTTGIIEYPFDLQSVIFRMVDVGGQRSERRKWIHCFENVTSIMFLVALSEYDQVLVESDNENRMEESKALFRTIITYPWFQNSSVILFLNKKDLLEEKIMYSHLVDYFPEYDGPQRDAQAAREFILKMFVDLNPDSDKIIYSHFTCATDTENIRFVFAAVKDTILQLNLKEYNLV [GNAQ]” the “solubility in G1/S (log2)” value (HeLa Kyoto [1]) was -0.282, the melting temperature (HeLa Kyoto [2]; cell cycle stage: G1/S) was 54.7 °C and the melting temperature (HeLa Kyoto [2]; cell cycle stage: mitosis) was 54.3 °C. The thermal stability score (HeLa Kyoto [3]; [5]) was -0.77, the thermal stability score (HeLa Kyoto [3]; cell cycle stage: mitosis) was -0.236 and the “solubility change mitosis (log2)” value (HeLa Kyoto [4]) was -0.0689.
For “MTMDGDSSTTDASQLGISADYIGGSHYVIQPHDDTEDSMNDHEDTNGSKESFREQDIYLPIANVARIMKNAIPQTGKIAKDAKECVQECVSEFISFITSEASERCHQEKRKTINGEDILFAMSTLGFDSYVEPLKLYLQKFREAMKGEKGIGGAVTATDGLSEELTEEAFTNQLPAGLITTDGQQQNVMVYTTSYQQISGVQQIQFS [NFYB]”, the “solubility in G1/S (log2)” value (HeLa Kyoto [1]) was 0.036, the melting temperature (HeLa Kyoto [2]; cell cycle stage: G1/S) was 54.5 °C and the melting temperature (HeLa Kyoto [2]; cell cycle stage: mitosis) was 54.5 °C. The thermal stability score (HeLa Kyoto [3]; [5]) was 0.178, the thermal stability score (HeLa Kyoto [3]; cell cycle stage: mitosis) was 0.0131 and the “solubility change mitosis (log2)” value (HeLa Kyoto [4]) was 0.064.
